Experiments:
[1] = target: Full length IDOL (1–445) (UniProt Q8WY64); test: MST; as a6 but in the presence of RINGpep2 (100 μM); apparent; homodimer to monomers
[2] = target: Full length IDOL (1–445) (UniProt Q8WY64); test: MST; increasing concentrations of unlabelled IDOL titrated into a 45 nM solution of dye-labelled IDOL; homodimer to monomers

An apparent KD in the presence of RINGPep2 (100 μM) [1] of 11.1 µM and a Kd [2] of 2.9 µM were found for “Full length IDOL (1–445) (from UniProt Q8WY64 1-445) (enzyme)” in this work.

Reference: publication PMC6050537, “Inhibition of low-density lipoprotein receptor degradation with a cyclic peptide that disrupts the homodimerization of IDOL E3 ubiquitin ligase” (Chemical Science, 2018)
